Measurements reported in patent publication US20240116985A1 (published 2024).
Starred links: 1 amine or outer side, 2 acyl side, 3 side chain; linkers in the order of their positions; H or OH if unused. Positions of bridges follow the written chain, without caps; N, C: chain ends. Non-standard residues stand in square brackets, D forms with d. Primed or numbered codes have the meaning given here. *: point of attachment. (Pfbn)GAbu = (S)-2-amino-4-((carboxymethyl)((perfluorophenyl)methyl)amino)butanoic acid, O=C([C@H](CCN(CC(=O)[*:3])Cc1c(F)c(F)c(F)c(F)c1F)N[*:1])[*:2]; PyrS2(3) = (S)-3-amino-1-((pent-4-en-1-yloxy)carbonyl)pyrrolidine-3-carboxylic acid, stapling residue, C=CCCCOC(=O)N1CC[C@@](N[*:1])(C(=O)[*:2])C1; PyrS2″ = (S)-3-amino-1-((pent-4-en-1-yloxy)carbonyl)pyrrolidine-3-carboxylic acid (stapling residue), C=CCCCOC(=O)N1CC[C@@](N[*:1])(C(=O)[*:2])C1; (Tfb)GAbu = (S)-2-amino-4-((carboxymethyl)(4,4,4-trifluorobutyl)amino)butanoic acid, O=C([C@H](CCN(CCCC(F)(F)F)CC(=O)[*:3])N[*:1])[*:2]; (Tfp)GAbu = (S)-2-amino-4-((carboxymethyl)(3,3,3-trifluoropropyl)amino)butanoic acid, O=C([C@H](CCN(CCC(F)(F)F)CC(=O)[*:3])N[*:1])[*:2]; B5(23) = 2-amino-2-(pent-4-en-1-yl)hept-6-enoic acid (2,2-bis(4-pentenyl)glycine), stitching residue, C=CCCCC(CCCC=C)(N[*:1])C(=O)[*:2]; B5(4) = 2,2-bis(4-pentenyl)glycine = 2-amino-2-(pent-4-en-1-yl)hept-6-enoic acid (stitching residue), C=CCCCC(CCCC=C)(N[*:1])C(=O)[*:2]; PyrS″ = (S)-1-((allyloxy)carbonyl)-3-aminopyrrolidine-3-carboxylic acid (stapling residue), C=CCOC(=O)N1CC[C@@](N[*:1])(C(=O)[*:2])C1; TfeGA = (S)-2-amino-3-((carboxymethyl)(2,2,2-trifluoroethyl)amino)propanoic acid, O=C([C@H](CN(CC(=O)[*:3])CC(F)(F)F)N[*:1])[*:2]; PyrS2 = (S)-3-amino-1-((pent-4-en-1-yloxy)carbonyl)pyrrolidine-3-carboxylic acid, C=CCCCOC(=O)N1CC[C@@](N[*:1])(C(=O)[*:2])C1; PyrS1 = (S)-3-amino-1-((but-3-en-1-yloxy)carbonyl)pyrrolidine-3-carboxylic acid, C=CCCOC(=O)N1CC[C@@](N[*:1])(C(=O)[*:2])C1; Az = 1-((allyloxy)carbonyl)-3-aminoazetidine-3-carboxylic acid (stapling residue), C=CCOC(=O)N1CC(N[*:1])(C(=O)[*:2])C1; (Bn)GAbu = (S)-2-amino-4-(benzyl(carboxymethyl)amino)butanoic acid, O=C([C@H](CCN(CC(=O)[*:3])Cc1ccccc1)N[*:1])[*:2]; PyrS = (S)-1-((allyloxy)carbonyl)-3-aminopyrrolidine-3-carboxylic acid, C=CCOC(=O)N1CC[C@@](N[*:1])(C(=O)[*:2])C1; B5(19) = 2-amino-2-(pent-4-en-1-yl)hept-6-enoic acid (bis(4-pentenyl)glycine), C=CCCCC(CCCC=C)(N[*:1])C(=O)[*:2]; HypEs5 = (2R,4S)-4-(pent-4-enoyloxy)pyrrolidine-2-carboxylic acid, C=CCCC(=O)O[C@H]1C[C@H](C(=O)[*:2])N([*:1])C1; (Et)GAbu = (S)-2-amino-4-((carboxymethyl)(ethyl)amino)butanoic acid, CCN(CC[C@H](N[*:1])C(=O)[*:2])CC(=O)[*:3]; GA = (S)-2-amino-3-((carboxymethyl)amino)propanoic acid, O=C([C@H](CNCC(=O)[*:3])N[*:1])[*:2]; Phe(4-tetrazol-5-yl) = N[C@@H](Cc1ccc(-c2nnn[nH]2)cc1)C(=O)O; Phe(2-Cl) = N[C@@H](Cc1ccccc1Cl)C(=O)O; Bta = N[C@@H](Cc1csc2ccccc12)C(=O)O; Lys(iPr) = CC(C)NCCCC[C@H](N)C(=O)O; αAllylPro = C=CC[C@@]1(C(=O)O)CCCN1; tBuAla = CC(C)(C)C[C@H](N)C(=O)O; 3Thi = N[C@@H](Cc1ccsc1)C(=O)O; Pfb = not defined here; Ms = CS(=O)(=O)*

T1: B-cat-Halo (UniProt P35222 1-781)
T1 sequence (looked up): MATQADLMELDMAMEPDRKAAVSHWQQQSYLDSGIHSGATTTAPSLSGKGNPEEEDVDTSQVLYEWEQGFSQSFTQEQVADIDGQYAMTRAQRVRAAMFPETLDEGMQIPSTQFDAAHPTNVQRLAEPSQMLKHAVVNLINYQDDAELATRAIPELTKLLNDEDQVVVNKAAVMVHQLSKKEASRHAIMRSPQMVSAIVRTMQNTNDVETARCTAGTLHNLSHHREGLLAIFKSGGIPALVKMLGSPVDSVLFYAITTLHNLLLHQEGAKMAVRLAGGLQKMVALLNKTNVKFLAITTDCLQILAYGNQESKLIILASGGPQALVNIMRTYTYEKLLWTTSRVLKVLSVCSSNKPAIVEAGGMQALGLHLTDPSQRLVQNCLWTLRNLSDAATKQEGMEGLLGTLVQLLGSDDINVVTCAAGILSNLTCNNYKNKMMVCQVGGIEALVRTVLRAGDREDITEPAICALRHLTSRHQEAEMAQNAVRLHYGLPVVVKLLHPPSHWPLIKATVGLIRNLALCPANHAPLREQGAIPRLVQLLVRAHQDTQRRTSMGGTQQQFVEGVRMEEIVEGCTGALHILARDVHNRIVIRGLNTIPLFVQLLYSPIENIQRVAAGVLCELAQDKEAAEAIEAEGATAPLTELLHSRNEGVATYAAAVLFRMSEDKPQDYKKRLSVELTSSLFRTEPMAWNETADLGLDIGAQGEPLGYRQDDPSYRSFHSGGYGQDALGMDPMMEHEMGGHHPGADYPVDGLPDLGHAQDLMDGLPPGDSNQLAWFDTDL

T2: B-cat-Halo (beta-catenin HaloTag construct expressed in HEK293 cells) (UniProt P35222 1-781)
T2 sequence (looked up): T1 sequence (looked up)

T3: full-length beta-Catenin (Uniprot ID P35222) (Homo sapiens (Human), UniProt P35222 2-781)
T3 construct: full-length beta-Catenin (Uniprot ID P35222); also called bCat; B-Catenin
T3 sequence: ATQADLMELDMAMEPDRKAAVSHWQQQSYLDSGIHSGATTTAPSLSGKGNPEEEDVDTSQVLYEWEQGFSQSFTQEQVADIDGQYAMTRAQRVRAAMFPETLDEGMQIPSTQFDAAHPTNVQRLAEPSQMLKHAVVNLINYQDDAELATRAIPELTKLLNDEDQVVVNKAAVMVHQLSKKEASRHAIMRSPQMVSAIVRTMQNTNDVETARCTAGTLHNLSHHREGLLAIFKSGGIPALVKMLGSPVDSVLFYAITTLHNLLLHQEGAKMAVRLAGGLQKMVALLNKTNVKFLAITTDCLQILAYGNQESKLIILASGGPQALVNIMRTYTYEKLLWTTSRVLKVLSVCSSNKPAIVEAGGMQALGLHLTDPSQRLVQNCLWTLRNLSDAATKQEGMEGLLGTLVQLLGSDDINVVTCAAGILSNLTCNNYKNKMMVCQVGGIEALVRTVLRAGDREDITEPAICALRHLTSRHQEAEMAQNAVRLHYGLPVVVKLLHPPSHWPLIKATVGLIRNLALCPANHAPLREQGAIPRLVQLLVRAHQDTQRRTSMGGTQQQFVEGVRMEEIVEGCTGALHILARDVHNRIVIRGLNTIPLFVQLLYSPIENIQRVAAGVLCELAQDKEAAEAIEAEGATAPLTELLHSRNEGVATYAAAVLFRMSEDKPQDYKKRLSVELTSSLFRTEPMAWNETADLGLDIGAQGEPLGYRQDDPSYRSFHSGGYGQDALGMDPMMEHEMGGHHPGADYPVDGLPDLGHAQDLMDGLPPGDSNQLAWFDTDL

B1: I-1565 (peptide)
peptide: Ac-[αAllylPro]D[tBuAla][B5(23)]NTAAFN[PyrS2][3Thi][Bta]Q-NH2
modifications: staple 1-4, 4-11; not fully specified; printed as Ac-PL3-Asp-Npg-B5-Asn-Thr-Ala-Ala-Phe-Asn-PyrS2-3Thi-BztA-Gln-NH2
B2: I-1574 (peptide)
peptide: Ms-[HypEs5]D[tBuAla][B5(23)]DDAAFN[PyrS2][3Thi][Bta]Q-NH2
modifications: staple 1-4, 4-11; not fully specified; printed as MeSO2-HypEs5-Asp-Npg-B5-Asp-Asp-Ala-Ala-Phe-Asn-PyrS2-3Thi-BztA-Gln-NH2
B3: I-1567 (peptide)
peptide: Ac-[αAllylPro]D[tBuAla][B5(23)]NQAAFN[PyrS2][3Thi][Bta]Q-NH2
modifications: staple 1-4, 4-11; not fully specified; printed as Ac-PL3-Asp-Npg-B5-Asn-Gln-Ala-Ala-Phe-Asn-PyrS2-3Thi-BztA-Gln-NH2
B4: I-1571 (peptide)
peptide: Ac-[αAllylPro]D[tBuAla][B5(23)]D[GA](Pfb)AAFN[PyrS2][Phe(2-Cl)][Bta]Q-NH2
modifications: staple 1-4, 4-11; reading uncertain; also: printed as Ac-PL3-Asp-Npg-B5-Asp-[Pfb]GA-Ala-Ala-Phe-Asn-PyrS2-2C1F-BztA-Gln-NH2
B5: I-1376 (peptide)
peptide: Ac-[αAllylPro]DA[B5(4)]NT[Lys(iPr)]AFL[PyrS2″]F[Bta]Q-NH2
modifications: staple 1-4, 4-11
notes: also called Ac-PL3-Asp-Ala-B5-Asn-Thr-iPrLys-Ala-Phe-Leu-PyrS2-Phe-BztA-Gln-NH2
B6: I-1377 (peptide)
peptide: Ac-[αAllylPro]DA[B5(4)]NT[Lys(iPr)]AFL[PyrS2″]F[Bta]K-NH2
modifications: staple 1-4, 4-11
notes: also called Ac-PL3-Asp-Ala-B5-Asn-Thr-iPrLys-Ala-Phe-Leu-PyrS2-Phe-BztA-Lys-NH2
B7: I-1378 (peptide)
peptide: Ac-[αAllylPro]DA[B5(4)]NT[Lys(iPr)]AFL[PyrS2″]F[Bta]T-NH2
modifications: staple 1-4, 4-11
notes: also called Ac-PL3-Asp-Ala-B5-Asn-Thr-iPrLys-Ala-Phe-Leu-PyrS2-Phe-BztA-Thr-NH2

molecular target: T1, B-cat-Halo; test: cell-based or functional assay

Binder	NanoBRET Abs IC50 [µM]
Ac-[αAllylPro]D[tBuAla][B5(23)]NNAAFL[PyrS2][3Thi][Bta]Q-NH2 (staple 1-4, 4-11) [I-1557]	> 20
B1	> 20
B2	> 20
B3	> 20
Ac-[αAllylPro]D[tBuAla][B5(23)]NQAAFN[PyrS2][3Thi][Bta]Q-NH2 (staple 1-4, 4-11; also: earlier-eluting HPLC staple isomer) [I-1566]	> 20
Ac-[αAllylPro]D[tBuAla][B5(23)]D[3TzF]AAFN[PyrS2(3)][3Thi][Bta]Q-NH2 (staple 1-4, 4-11) [I-1578]	> 20
B4	11.7
Ac-[αAllylPro]D[tBuAla][B5(23)]D[GA]AAFN[PyrS2][Phe(2-Cl)][Bta]Q-NH2 (staple 1-4, 4-11) [I-1572]	> 20
Ac-[HypEs5]D[tBuAla][B5(23)]DDAAFN[PyrS2][3Thi][Bta]Q-NH2 (staple 1-4, 4-11) [I-1573]	> 20
Ac-[αAllylPro]D[tBuAla][B5(23)]D[Phe(4-tetrazol-5-yl)]AAFN[PyrS2(3)][3Thi][Bta]Q-NH2 (staple 1-4, 4-11) [I-1579]	> 20
Ac-[αAllylPro]D[tBuAla][B5(23)]NTAAFN[PyrS2][3Thi][Bta]Q-NH2 (staple 1-4, 4-11; also: earlier-eluting HPLC staple isomer) [I-1564]	> 20

molecular target: T2, B-cat-Halo (beta-catenin HaloTag …); test: cell-based or functional assay

Binder	NanoBRET Abs IC50 [µM]
Ac-[αAllylPro]D[tBuAla][B5(4)]D[(Tfp)GAbu]AAFL[PyrS2″][3Thi][Bta]Q-NH2 (staple 1-4, 4-11) [I-1839]	14.6
Ac-[αAllylPro]D[tBuAla][B5(4)]D[(Tfb)GAbu]AAFL[PyrS2″][3Thi][Bta]Q-NH2 (staple 1-4, 4-11) [I-1837]	18.5
Ac-[αAllylPro]D[tBuAla][B5(4)]D[(Pfbn)GAbu]AAFL[PyrS2″][3Thi][Bta]Q-NH2 (staple 1-4, 4-11) [I-1838]	7.9
Ac-[αAllylPro]D[tBuAla][B5(4)]D[TfeGA]AAFL[PyrS2″][Phe(2-Cl)][Bta]Q-NH2 (staple 1-4, 4-11) [I-1833]	6.9
Ac-[αAllylPro]D[tBuAla][B5(19)]DDAAFL[PyrS1][3Thi][Bta]Q-NH2 (staple 1-4, 4-11; also: staple olefins reduced to CH2-CH2) [I-1822]	> 20
Ac-[αAllylPro]D[tBuAla][B5(4)]D[(Bn)GAbu]AAFL[PyrS2″][3Thi][Bta]Q-NH2 (staple 1-4, 4-11) [I-1834]	18.8
Ac-[αAllylPro]D[tBuAla][B5(19)]DDAAFL[PyrS][3Thi][Bta]Q-NH2 (staple 1-4, 4-11) [I-1818]	> 20
Ac-[αAllylPro]D[tBuAla][B5(4)]DDAAFL[Az][3Thi][Bta]Q-NH2 (staple 1-4, 4-11) [I-1828]	> 20
Ac-[αAllylPro]D[tBuAla][B5(19)]DDAAFN[PyrS][3Thi][Bta]Q-NH2 (staple 1-4, 4-11; also: staple olefins reduced to CH2-CH2) [I-1823]	> 20
Ac-[αAllylPro]D[tBuAla][B5(19)]DDAAFN[PyrS1][3Thi][Bta]Q-NH2 (staple 1-4, 4-11; also: staple olefins reduced to CH2-CH2) [I-1821]	> 20
Ac-[αAllylPro]D[tBuAla][B5(4)]D[(Et)GAbu]AAFL[PyrS2″][3Thi][Bta]Q-NH2 (staple 1-4, 4-11) [I-1835]	31.9
Ac-[αAllylPro]D[tBuAla][B5(4)]DDAAFL[PyrS″][3Thi][Bta]Q-NH2 (staple 1-4, 4-11; also: staple -CH=CH- reduced to -CH2-CH2- in both staples) [I-1824]	> 20

molecular target: T3, full-length beta-Catenin (Uniprot ID …); test: fluorescence polarization competition; full-length beta-catenin + 5FAM-TCF4 10-53 probe, peptide titrated
Procedure: The plate was incubated protected from light for 60 minutes at 20° C. prior to read. Reads were performed on a CLARIOstar plate reader (BMG Labtech) in duplicate, and data were fitted to a 1:1 binding model with hill slope using an in-house script. All provided concentrations are final concentrations.

Binder	IC50 [µM]
B5	4.21
B6	1
B7	6.17
